# According to article PMC3834829, “A signature motif mediating selective interactions of BCL11A with the NR2E/F subfamily of orphan nuclear receptors” (Nucleic Acids Research, 2013):
# B1: LexA-NSD1-(790–818) [not stated] / AAD-ERα-LBD-(282–595) [not stated] (parent complex)
# chain 1: SSQNHIPIEPDYKFSTLLMMLKDMHDSKT
# chain 2: SAGDMRAANLWPSPLMIKRSKKNSLALSLTADQMVSALLDAEPPILYSEYDPTRPFSEASMMGLLTNLADRELVHMINWAKRVPGFVDLTLHDQVHLLECAWLEILMIGLVWRSMEHPGKLLFAPNLLLDRNQGKCVEGMVEIFDMLLATSSRFRMMNLQGEEFVCLKSIILLNSGVYTFLSSTLKSLEEKDHIHRVLDKITDTLIHLMAKAGLTLQQQHQRLAQLLLILSHIRHMSNKGMEHLYSMKCKNVVPLYDLLLEMLDAHRLHAPTSRGGASVEETDQSHLATAGSTSSHSLQKYYITGEAEGFPATV
# B2: AAD-COUP-TFII-LBD-(144–414) [not stated] / LexA-BCL11A-(310–325) [not stated] (parent complex)
# chain 1: MRREAVQRGRMPPTQPTHGQFALTNGDPLNCHSYLSGYISLLLRAEPYPTSRFGSQCMQPNNIMGIENICELAARMLFSAVEWARNIPFFPDLQITDQVALLRLTWSELFVLNAAQCSMPLHVAPLLAAAGLHASPMSADRVVAFMDHIRIFQEQVEKLKALHVDSAEYSCLKAIVLFTSDACGLSDVAHVESLQEKSQCALEEYVRSQYPNQPTRFGKLLLRLPSLRTVSSSVIEQLFFVRLVGKTPIETLIRDMLLSGSSFNWPYMAIQ
# chain 2: PPAMDFSRRLRELAGN
# B3: LexA-BCL11A-(310–325) [not stated] / AAD-PNR-LBD-(131–410) [not stated] (parent complex)
# chain 1: PPAMDFSRRLRELAGN
# chain 2: HLDSMESNTESRPESLVAPPAPAGRSPRGPTPMSAARALGHHFMASLITAETCAKLEPEDADENIDVTSNDPEFPSSPYSSSSPCGLDSIHETSARLLFMAVKWAKNLPVFSSLPFRDQVILLEEAWSELFLLGAIQWSLPLDSCPLLAPPEASAAGGAQGRLTLASMETRVLQETISRFRALAVDPTEFACMKALVLFKPETRGLKDPEHVEALQDQSQVMLSQHSKAHHPSQPVRFGKLLLLLPSLRFITAERIELLFFRKTIGNTPMEKLLCDMFKN
# B4: LexA-BCL11A-(310–325) [not stated] / AAD-COUP-TFI-LBD-(151–467) [not stated] (parent complex)
# chain 1: PPAMDFSRRLRELAGN
# chain 2: MRREAVQRGRMPPTQPNPGQYALTNGDPLNGHCYLSGYISLLLRAEPYPTSRYGSQCMQPNNIMGIENICELAARLLFSAVEWARNIPFFPDLQITDQVSLLRLTWSELFVLNAAQCSMPLHVAPLLAAAGLHASPMSADRVVAFMDHIRIFQEQVEKLKALHVDSAEYSCLKAIVLFTSDACGLSDAAHIESLQEKSQCALEEYVRSQYPNQPSRFGKLLLRLPSLRTVSSSVIEQLFFVRLVGKTPIETLIRDMLLSGSSFNWPYMSIQCS
# Variants of: B1
# Test: yeast two-hybrid; + 1µM E2; read off a plot
row,Variant,response
1,chain 1 L21A,~0 nmol/mg/min
2,chain 1 K22A,~2500 nmol/mg/min
3,chain 1 K13A,~2100 nmol/mg/min
4,chain 1 D23A,~1700 nmol/mg/min
5,chain 1 M19A,~2700 nmol/mg/min
6,chain 1 Y12A,~2000 nmol/mg/min
7,chain 1 F14A,~2400 nmol/mg/min
8,chain 1 L18A,~1800 nmol/mg/min
9,chain 1 M20A,~0 nmol/mg/min
10,chain 1 S15A,~0 nmol/mg/min
11,chain 1 L17A,~0 nmol/mg/min

# Variants of: B2
# Test: yeast two-hybrid; read off a plot
row,Variant,response
1,chain 1 V99A,~640 nmol/mg/min
2,chain 1 V81A,~960 nmol/mg/min
3,chain 1 F78A,~0 nmol/mg/min
4,chain 1 I95A,~850 nmol/mg/min
5,chain 1 R103A,~330 nmol/mg/min
6,chain 1 R85A,~2100 nmol/mg/min

# Variants of: B3
# Test: yeast two-hybrid; read off a plot
row,Variant,response
1,chain 1 F6A,~0 nmol/mg/min
2,chain 1 R8A,~0 nmol/mg/min
3,chain 1 R11A,~0 nmol/mg/min
4,chain 1 S7A,~2500 nmol/mg/min
5,chain 1 L10A,~0 nmol/mg/min
6,chain 1 L13A,~0 nmol/mg/min

# Variants of: B4
# Test: yeast two-hybrid; read off a plot
row,Variant,response
1,chain 1 L10A,~0 nmol/mg/min
2,chain 1 R8A,~900 nmol/mg/min
3,chain 1 R11A,~670 nmol/mg/min
4,chain 1 F6A,~0 nmol/mg/min
5,chain 1 S7A,~100 nmol/mg/min
6,chain 1 L13A,~0 nmol/mg/min
